Experimental data as given in PMC4259101.

Target: MED14-containing head+middle (H+M+14) complex (human) (UniProt O60244)
Assay: co-IP

percent of input bound: < 75 % of input
Substance: RNA polymerase II (from UniProt P24928;P61218) (complex)
